From patent US20200299373A1

What was measured:
[1] = target: recombinant human FAM19A5 protein (His-tagged) (human) (UniProt Q7Z5A7); test: two-site sandwich ELISA; capture antibody 13B4; biotinylated detection antibody P2-F11; antigen in ng/mL
[2] = target: recombinant human FAM19A5 protein (His-tagged) (human) (UniProt Q7Z5A7); test: two-site sandwich ELISA; capture antibody 2-13; biotinylated detection antibody P2-F11; antigen in ng/mL
[3] = target: recombinant human FAM19A5 protein (His-tagged) (human) (UniProt Q7Z5A7); test: two-site sandwich ELISA; capture antibody P2-A03; biotinylated detection antibody P2-F11; antigen in ng/mL
[4] = target: recombinant human FAM19A5 protein (His-tagged) (human) (UniProt Q7Z5A7); test: two-site sandwich ELISA; capture antibody 1-65; biotinylated detection antibody P2-F11; antigen in ng/mL
[5] = target: recombinant human FAM19A5 protein (His-tagged) (human) (UniProt Q7Z5A7); test: two-site sandwich ELISA; capture antibody P2-A03; S/N = O.D. at 10 ng/mL antigen / O.D. at 0 ng/mL; O.D. in column 0 printed 0.09
[6] = target: recombinant human FAM19A5 protein (His-tagged) (human) (UniProt Q7Z5A7); test: ELISA on N'-Term His FAM19A5, fit of the titration (OD 492 nm); R2 printed 0.9692
[7] = target: recombinant human FAM19A5 protein (His-tagged) (human) (UniProt Q7Z5A7); test: two-site sandwich ELISA; capture antibody 3-2; S/N = O.D. at 10 ng/mL antigen / O.D. at 0 ng/mL; O.D. in column 0 printed 0.13
[8] = target: recombinant human FAM19A5 protein (His-tagged) (human) (UniProt Q7Z5A7); test: two-site sandwich ELISA; capture antibody 1-65; S/N = O.D. at 10 ng/mL antigen / O.D. at 0 ng/mL; O.D. in column 0 printed 0.12
[9] = target: recombinant human FAM19A5 protein (His-tagged) (human) (UniProt Q7Z5A7); test: ELISA on N'-Term His FAM19A5, fit of the titration; R2 printed 0.9692
[10] = target: recombinant human FAM19A5 protein (His-tagged) (human) (UniProt Q7Z5A7); test: two-site sandwich ELISA; capture antibody 3-2; biotinylated detection antibody P2-F11; antigen in ng/mL
[11] = target: recombinant human FAM19A5 protein (His-tagged) (human) (UniProt Q7Z5A7); test: two-site sandwich ELISA; capture antibody 13B4; S/N = O.D. at 10 ng/mL antigen / O.D. at 0 ng/mL; O.D. in column 0 printed 0.18
[12] = target: recombinant human FAM19A5 protein (His-tagged) (human) (UniProt Q7Z5A7); test: two-site sandwich ELISA; capture antibody 2-13; S/N = O.D. at 10 ng/mL antigen / O.D. at 0 ng/mL; O.D. in column 0 printed 0.29
[13] = target: recombinant human FAM19A5 protein (His-tagged) (human) (UniProt Q7Z5A7); test: two-site sandwich ELISA; capture antibody 1-65; S/N = O.D. at 10 ng/mL antigen / O.D. at 0 ng/mL; O.D. in column 0 printed 0.15
[14] = target: recombinant human FAM19A5 protein (His-tagged) (human) (UniProt Q7Z5A7); test: two-site sandwich ELISA; capture antibody 2-13; S/N = O.D. at 10 ng/mL antigen / O.D. at 0 ng/mL; O.D. in column 0 printed 0.22
[15] = target: recombinant human FAM19A5 protein (His-tagged) (human) (UniProt Q7Z5A7); test: two-site sandwich ELISA; capture antibody 2-13; biotinylated detection antibody P2-A03; antigen in ng/mL
[16] = target: recombinant human FAM19A5 protein (His-tagged) (human) (UniProt Q7Z5A7); test: two-site sandwich ELISA; capture antibody 3-2; biotinylated detection antibody P2-A03; antigen in ng/mL
[17] = target: recombinant human FAM19A5 protein (His-tagged) (human) (UniProt Q7Z5A7); test: two-site sandwich ELISA; capture antibody P2-F11; biotinylated detection antibody P2-A03; antigen in ng/mL
[18] = target: recombinant human FAM19A5 protein (His-tagged) (human) (UniProt Q7Z5A7); test: two-site sandwich ELISA; capture antibody 13B4; S/N = O.D. at 10 ng/mL antigen / O.D. at 0 ng/mL; O.D. in column 0 printed 0.22
[19] = target: recombinant human FAM19A5 protein (His-tagged) (human) (UniProt Q7Z5A7); test: two-site sandwich ELISA; capture antibody 13B4; biotinylated detection antibody P2-A03; antigen in ng/mL
[20] = target: recombinant human FAM19A5 protein (His-tagged) (human) (UniProt Q7Z5A7); test: two-site sandwich ELISA; capture antibody 1-65; biotinylated detection antibody P2-A03; antigen in ng/mL
[21] = target: recombinant human FAM19A5 protein (His-tagged) (human) (UniProt Q7Z5A7); test: ELISA on N'-Term His FAM19A5, fit of the titration (OD 492 nm); R2 printed 0.9746
[22] = target: recombinant human FAM19A5 protein (His-tagged) (human) (UniProt Q7Z5A7); test: two-site sandwich ELISA; capture antibody P2-F11; S/N = O.D. at 10 ng/mL antigen / O.D. at 0 ng/mL; O.D. in column 0 printed 0.14
[23] = target: recombinant human FAM19A5 protein (His-tagged) (human) (UniProt Q7Z5A7); test: ELISA on N'-Term His FAM19A5, fit of the titration; R2 printed 0.9746
[24] = target: recombinant human FAM19A5 protein (His-tagged) (human) (UniProt Q7Z5A7); test: two-site sandwich ELISA; capture antibody 3-2; S/N = O.D. at 10 ng/mL antigen / O.D. at 0 ng/mL; O.D. in column 0 printed 0.16
[25] = target: T1, F2-03-BSA (human); test: ELISA on mutant F2 peptide-BSA #3; conditions: remark: other sources report otherwise
T1 chain: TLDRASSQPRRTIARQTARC

[26] = target: recombinant human FAM19A5 protein (His-tagged) (human) (UniProt Q7Z5A7); test: ELISA on coated FAM19A5, as in Example 6
[27] = target: recombinant human FAM19A5 protein (His-tagged) (human) (UniProt Q7Z5A7); test: ELISA on N'-Term His FAM19A5, fit of the titration (OD 492 nm); R2 printed 0.8703

B1: anti-FAM19A5 antibody P2-F11 (antibody, V domains shown)
VH: QEQLVESGGRLVTPGTTLTLTCTVSGFSLSSYGVSWVRQAPGKGLEWIGYIANNYNPHYASWAKGRFTISKTSSTTVDLKMTSLTTEDTATYFCARDNYGMDPWGPGTLVTVSS
VL: ELDLTQTPSSVSAAVGGTVTINCQASQSVYNNKNLAWYQQKPGQPPKLLIYAASTLASGVSSRFKGSGSGTQFTLTISDVQCDDAATYYCQGEFSCSSADCNAFGGGTELEILR
modifications: Biotinylated when used as detection antibody in FIG. 6B.
B1 was tested, and the O.D., antigen 100 [1] was 0.2, the O.D., antigen column 10 [1] was 0.18 and the O.D., antigen 100 [2] was 1.83. The O.D., antigen column 10 [2] was 2.04, the O.D., antigen 100 [3] was 0.09 and the O.D., antigen column 10 [3] was 0.09. It also gave an O.D., antigen 100 [4] of 1.25, an O.D., antigen column 10 [4] of 0.2 and a S/N [5] of 1. The Bmax [6] was 3.26, the S/N [7] was 13.9 and the S/N [8] was 1.7. For the same binder, the Kd [9] was 0.41 nM, the O.D., antigen 100 [10] was 2.02 and the O.D., antigen column 10 [10] was 1.81. It also gave a S/N [11] of 1 and a S/N [12] of 7.

B2: anti-FAM19A5 antibody P2-A03 (antibody, V domains shown)
VH: QSVEESGGRLVTPGTPLTLTCTVSGFSLNNYDMSWVRQAPGKGLEYIGFMDTDGSAYYATWAKGRFTISRTSTTVDLKMTSPTTEDTATYFCARRGSSYYGGIDIWGPGTPVTVSL
VL: ELDLTQTPASVSEPVGGTVTIKCQASQSIGGNLAWYQQKPGQPPKLLIYRASTLASGVPSRFKGSGSGTDFTLTISDLECADAATYYCQSPAYDPAAYVGNAFGGGTELEILR
modifications: Biotinylated when used as detection antibody in FIG. 6B.
B2 gave a S/N [13] of 1, a S/N [14] of 7.8 and an O.D., antigen 100 [15] of 1.88. For the same binder, the O.D., antigen column 10 [15] was 1.72, the O.D., antigen 100 [16] was 1.91 and the O.D., antigen column 10 [16] was 1.66. For the same binder, the O.D., antigen 100 [17] was 0.15, the O.D., antigen column 10 [17] was 0.15 and the S/N [18] was 1. For the same binder, the O.D., antigen 100 [19] was 0.27, the O.D., antigen column 10 [19] was 0.22 and the O.D., antigen 100 [20] was 0.16. For the same binder, the O.D., antigen column 10 [20] was 0.15, the Bmax [21] was 3.37 and the S/N [22] was 1.1. The Kd [23] was 0.61 nM and the S/N [24] was 10.

B3: anti-FAM19A5 antibody 1-28 (antibody, V domains shown)
VH: AVTLDESGGGLQTPGGALSLVCKASGFDFSDYGMGWVRQAPGKGLEWVAAIRSDGSNPSYGSAVKGRATISKDNGRSTVRLQLNNLRAEDTATYYCAKDGNGYCALDAYRSGGYSCGVYPGSIDAWGHGTEVIVSS
VL: ALTQPSSVSANLEGTVEITCSGSGYGYGWYQQKSPGSAPVTVIYQNDKRPSDIPSRFSGSKSGSTGTLTITGVQVEDEAVYYCGSEDSSTLAGIFGAGTTLTVL
modifications: here or on the partner: conjugated to BSA
B3 gave an O.D (492nm) [25] of 0.055, a Kd [26] of 0.17 nM and a Bmax [27] of 2.94.
